Measured values as given in patent US20240342704A1 (BERKELEY LIGHTS, published 2024).

Biological target: T1, HLA-A*02:01 MHC Class I complex (biotinylated) (human, biotinylated)
T1 construct: The MHC molecule as the partner of the peptide in the groove; It was captured on streptavidin DynaBeads; also called pHLA; pMHC
Experiment: pMHC on streptavidin beads held in T cell culture media at 37 C for 0-48 h; W6/32-APC MFI by flow cytometry fitted to an exponential decay
Procedure: To wells of a 96-well, round-bottom microplate, 0.2 mL of T Cell Culture Media (Advanced RPMI, 10% Human AB Serum, 1 mM GlutaMax) was added and equilibrated to 37° C. in a standard tissue culture incubator. To three wells each, four microliters of each pHLA-beads was added to a well. The process of adding beads to wells was repeated at time intervals resulting in beads that were held in the media at 37° C. for 48, 32, 24, 16, 8, 4, 2, and 1 hr. The plate was centrifuged at 400 g for 5 minutes, and the media removed by flicking the plate. A sample of beads held at 4° C. for the duration of the time course was then added to three wells to create the 0 hr time point.
An APC-conjugated, conformationally sensitive antibody which only recognizes pMHC molecules in the folded, complex conformation (Clone W6/32, Biolegend) was then added to each well. The antibody was diluted 50-fold from the manufacturer stock into Assay Buffer, and 0.05 mL of antibody mixture was added to each well. […]
Antibody binding to the beads was then detected on a FACSCelesta with High-Throughput Sampler (BD Biosciences). […] Approximately 25,000 bead events were recorded for each sample. The Median Fluorescence Intensity (MFI) in the APC channel for the pHLA-beads in each sample was then recorded. […] The half-lives for the pHLA complexes were then calculated from the fitted decay constant.

| half-life | Binder |
| --- | --- |
| ~17 h | SLYSYFQKV (Synthetic 9-mer peptide, dissolved in DMSO and diluted in PBS for the exchange reaction; also called Immunogenic SLC45A2-derived peptide; SLC45A2 antigen) [SLC45A2-derived peptide antigen SLYSYFQKV (SEQ ID NO: 5)] |
| ~0.5 h | SLLPIMWQLY (Synthetic 10-mer peptide; also called Non-Immunogenic TCL1-derived peptide) [TCL1-derived peptide antigen SLLPIMWQLY (SEQ ID NO: 6)] |
